{"source": "paper PMC5683654", "about": "“Interaction between the flagellar pocket collar and the hook complex via a novel microtubule-binding protein in Trypanosoma brucei” (PLoS Pathogens, 2017)", "molecules": {"B1": {"name": "BILBO1-NTD’ (aa 1–120) (domain or fragment)", "chain": "MAFLVQVAADIFNNKVNFELSFPSRPSISELTRSAETAFSNEISLRRPDNVPSHKFHSSKIKMYDEELNKWVDLIREDQLTDYCQLYVFQPPNEWHKESQKEIPPAMKPPSSGQRHSAGG"}, "B2": {"name": "FPC4-B1BD (aa 357–440) (domain or fragment, Trypanosoma brucei, UniProt Q57YN8 357-440, looked up)", "chain": "SQPPSGMISACTPISSPSRGRGTGWAKSLYNELREEGSLSPYLRYLPSDVSGGEWDKPDVGDVLCFQAKEPQRRRVLTSPVPDE", "notes": "FPC4 of Trypanosoma brucei, Tb927.8.6370, aa 357-440, cloned into the custom vector MalpET; also called TbFPC4-B1BD; MBP-tagged FPC4-B1BD; source: E. coli, purified (Ni-HiTrap, tag removed with TEV, Superdex-200); not shown: MBP, N-terminal, cleaved; His10, N-terminal, cleaved"}}, "key": {"[1]": {"biological_target": "BILBO1-Edge-Mut (K60A/K62A), bacterially expressed BILBO1-NTD’ (Trypanosoma brucei)", "assay": "ITC; 25°C, 20 mM Tris-HCl pH 8.0, 50 mM NaCl; 50 μM BILBO1-NTD’ in the cell titrated with 600 μM FPC4-B1BD; one-site binding model"}, "[2]": {"biological_target": "taxol-stabilised microtubules (polymerised tubulin)", "assay": "co-sedimentation; microtubule binding assay; increasing concentrations of FPC4 fragment with 7.2 μM polymerised tubulin in PEMD, 1 h at 22°C, 16,100 g; pellets and supernatants on SDS-PAGE"}, "FPC4-B1BD (aa 357–440)": {"biological_target": "T1, FPC4-B1BD (aa 357–440) (Trypanosoma brucei, UniProt Q57YN8 357-440)", "T1 chain": "B2 chain", "assay": "ITC"}, "BILBO1-NTD’ (aa 1–120) [3]": {"biological_target": "T2, BILBO1-NTD’ (aa 1–120) (Trypanosoma brucei, UniProt Q382W6 1-120)", "T2 construct": "BILBO1 of Trypanosoma brucei, Tb927.11.12150, aa 1-120, cloned into pET-15b; also called TbBILBO1-NTD’; 6His-BILBO1-NTD’; source: E. coli, purified (Ni-HiTrap, tag removed with thrombin, Superdex-200); not shown: His6, N-terminal, cleaved", "T2 sequence (looked up)": "B1 chain", "assay": "SEC-MALS; static light scattering on Superdex 200 10/300 GL; purified proteins mixed at molar ratio ~1:2, total 2 mg/ml, 30 min at room temperature", "conditions": "both partners purified"}, "BILBO1-NTD’ (aa 1–120) [4]": {"biological_target": "T2, BILBO1-NTD’ (aa 1–120)", "assay": "ITC; 25°C, 20 mM Tris-HCl pH 8.0, 50 mM NaCl; 50 μM BILBO1-NTD’ in the cell titrated with 600 μM FPC4-B1BD; one-site binding model", "conditions": "both partners purified"}}}
{"molecule": "FPC4-B1BD (aa 357–440) (from UniProt Q57YN8 357-440) (domain or fragment)", "values": [{"measurement": "Kd", "setting": "[1]", "value": 18, "unit": "µM"}]}
{"molecule": "FPC4-1-260-6His (domain or fragment)", "values": [{"measurement": "saturating concentration", "setting": "[2]", "value": 5.6, "unit": "µM"}]}
{"molecule": "B1", "values": [{"measurement": "Kd", "setting": "FPC4-B1BD (aa 357–440)", "value": 5.4, "unit": "µM"}]}
{"molecule": "B2", "values": [{"measurement": "stoichiometry N", "setting": "BILBO1-NTD’ (aa 1–120) [3]", "value": 1}, {"measurement": "Kd", "setting": "BILBO1-NTD’ (aa 1–120) [4]", "value": "~5", "unit": "µM"}]}
